The values that follow come from publication PMC11441417 (Nanoscale Horizons, 2024).

Like-named read-outs stand apart in the source and are kept apart here.

Common to all, as to assay: AFM single-molecule force spectroscopy
In assay [1] the target is T1, reovirus T1L σ3_(3)μ1_(3) heterohexamer (mammalian orthoreovirus type 1 Lang …, UniProt P07939 1-365; P11077 1-708).
T1 sequence (looked up) 1: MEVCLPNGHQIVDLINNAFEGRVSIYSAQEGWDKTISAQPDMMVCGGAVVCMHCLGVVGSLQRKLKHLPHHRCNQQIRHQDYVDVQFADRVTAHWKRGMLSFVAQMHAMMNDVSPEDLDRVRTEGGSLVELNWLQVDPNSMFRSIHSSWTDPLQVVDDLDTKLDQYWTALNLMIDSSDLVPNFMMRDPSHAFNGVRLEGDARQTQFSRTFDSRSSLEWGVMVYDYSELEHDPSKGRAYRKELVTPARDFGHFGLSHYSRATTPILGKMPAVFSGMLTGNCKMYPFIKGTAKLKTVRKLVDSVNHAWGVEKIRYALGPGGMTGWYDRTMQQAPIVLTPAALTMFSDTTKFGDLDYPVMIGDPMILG
T1 sequence (looked up) 2: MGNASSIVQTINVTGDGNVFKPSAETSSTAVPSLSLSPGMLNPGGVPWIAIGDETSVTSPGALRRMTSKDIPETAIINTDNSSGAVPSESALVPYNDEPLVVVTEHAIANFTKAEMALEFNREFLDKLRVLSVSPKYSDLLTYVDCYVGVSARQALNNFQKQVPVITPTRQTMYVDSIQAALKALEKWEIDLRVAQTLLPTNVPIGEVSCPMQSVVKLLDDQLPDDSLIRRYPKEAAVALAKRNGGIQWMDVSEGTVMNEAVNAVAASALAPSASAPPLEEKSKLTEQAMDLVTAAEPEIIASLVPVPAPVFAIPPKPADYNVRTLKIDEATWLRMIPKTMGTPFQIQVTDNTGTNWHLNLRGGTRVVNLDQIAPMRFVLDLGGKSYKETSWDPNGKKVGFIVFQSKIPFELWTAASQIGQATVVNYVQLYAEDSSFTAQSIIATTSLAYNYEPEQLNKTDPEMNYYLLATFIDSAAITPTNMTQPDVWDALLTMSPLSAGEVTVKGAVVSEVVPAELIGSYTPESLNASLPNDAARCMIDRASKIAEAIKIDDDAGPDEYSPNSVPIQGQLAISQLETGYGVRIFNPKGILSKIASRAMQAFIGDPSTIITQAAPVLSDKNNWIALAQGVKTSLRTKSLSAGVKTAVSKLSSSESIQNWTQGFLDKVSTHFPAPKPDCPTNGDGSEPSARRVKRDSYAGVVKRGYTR

Assay [2] concerns the target T1, reovirus T1L σ3_(3)μ1_(3) heterohexamer. This is another data set of the same source.
Assay [3] concerns the target reovirus type 1 Lang (T1L) virion (mammalian orthoreovirus type 1 Lang (T1L)) (UniProt P07939).

B1: His-tagged human Nogo-66 receptor 1 (amino acids 1-310) (receptor, UniProt Q9BZR6 27-310, looked up)
chain: CPGACVCYNEPKVTTSCPQQGLQAVPVGIPAASQRIFLHGNRISHVPAASFRACRNLTILWLHSNVLARIDAAAFTGLALLEQLDLSDNAQLRSVDPATFHGLGRLHTLHLDRCGLQELGPGLFRGLAALQYLYLQDNALQALPDDTFRDLGNLTHLFLHGNRISSVPERAFRGLHSLDRLLLHQNRVAHVHPHAFRDLGRLMTLYLFANNLSALPTEALAPLRALQYLRLNDNPWVCDCRARPLWAWLQKFRGSSSEVPCSLPQRLAGRDLKRLAANDLQGCA
Turning to B1, the koff (commonly the first-order rate constant of dissociation) in assay [1] worked out at 3.51 ± 2.02 s⁻¹. In assay [2], the koff amounted to 0.32 ± 0.21 s⁻¹ and the on-rate (kon) (as a rule, the second-order rate constant of association) was found to be 2.17e+06 ± 200000 M⁻¹ s⁻¹.

B2: Fc-tagged mouse NgR1 (Fc fusion)
chain: CPGACVCYNEPKVTTSCPQQGLQAVPTGIPASSQRIFLHGNRISHVPAASFQSCRNLTILWLHSNALARIDAAAFTGLTLLEQLDLSDNAQLHVVDPTTFHGLGHLHTLHLDRCGLRELGPGLFRGLAALQYLYLQDNNLQALPDNTFRDLGNLTHLFLHGNRIPSVPEHAFRGLHSLDRLLLHQNHVARVHPHAFRDLGRLMTLYLFANNLSMLPAEVLMPLRSLQYLRLNDNPWVCDCRARPLWAWLQKFRGSSSEVPCNLPQRLADRDLKRLAASDLEGCAVASGPFRPIQTSQLTDEELLSLPKCCQPDAADKASVLEPGRPASAGNALKGRVPPGDTPPGNGSGPRHINDSPFGTLPSSAEPPLTALRPGGSEPPGLPTTGPRRRPGCSRKNRTRSHCRLGQAGSGASGTGDAEGS
With B2, in assay [3], the dissociation constant Kd – broadly, the concentration at which binding is half-saturated – was 93.5 nM; the koff was 0.65 s⁻¹; the kon came out at 6.94e+06 M⁻¹ s⁻¹.

B3: His-tagged mouse Nogo-66 receptor 1 (amino acids 1-447) (receptor, UniProt Q99PI8 27-447, looked up)
chain: B2 chain
On to B3, for which, in assay [2], the Kd worked out at 76.8 ± 51.8 nM, the koff was 0.23 ± 0.12 s⁻¹ and the on-rate (kon) came to 2.99e+06 ± 460000 M⁻¹ s⁻¹.
